Experimental data from article PMC8670242, “Functional Characterization and Structural Insights Into Stereoselectivity of Pulegone Reductase in Menthol Biosynthesis” (Frontiers in Plant Science, 2021).

Key:
[1] = substrate: CC(C)=C1CC[C@@H](C)CC1=O; assay: chiral GC of menthone/isomenthone formed, Michaelis-Menten; type: biochemical, Mentha x piperita; conditions: 10 mM NADPH with glucose-6-phosphate/G6PDH regeneration, pH 7.5, 31 °C, n-hexane overlay
[2] = substrate: CC(C)=C1CC[C@H](C)CC1=O; assay: as above; type: biochemical, Mentha x piperita; conditions: 10 mM NADPH with glucose-6-phosphate/G6PDH regeneration, pH 7.5, 31 °C, n-hexane overlay

B1: MpPR (Mentha x piperita) (protein)
chain: MVMNKQIVLNNYINGSLKQSDLALRTSTICMEIPDGCNGAILVKNLYLSVNPYLILRMGKLDIPQFDSILPGSTIVSYGVSKVLDSTHPSYEKGELIWGSQAGWEEYTLIQNPYNLFKIQDKDVPLSYYVGILGMPGMTAYAGFFEICSPKKGETVFVTAAAGSVGQLVGQFAKMFGCYVVGSAGSKEKVDLLKNKFGFDDAFNYKEESDYDTALKRHFPEGIDIYFDNVGGKMLEAVINNMRVHGRIAVCGMVSQYSLKQPEGVHNLLKLIPKQIRMQGFVVVDYYHLYPKFLEMVLPRIKEGKVTYVEDISEGLESAPSALLGVYVGRNVGNQVVAVSRE
notes: pET28a His-tag fusion, E. coli BL21(DE3), Ni-NTA and gel filtration; homodimer; EC 1.3.1.81
[1]
  Km: 3.00 µM
  kcat: 863.66 10^-4 s^-1
[2]
  Km: 8.63 µM
  kcat: 1595.06 10^-4 s^-1
